Experimental data reported in patent US20100076060.

How the values were obtained:
[1] = target: T1, 4-1BB (CD137) extracellular portion (Mus musculus) (UniProt P20334); test: filter; settings: 2'-F pyrimidines
T1 sequence: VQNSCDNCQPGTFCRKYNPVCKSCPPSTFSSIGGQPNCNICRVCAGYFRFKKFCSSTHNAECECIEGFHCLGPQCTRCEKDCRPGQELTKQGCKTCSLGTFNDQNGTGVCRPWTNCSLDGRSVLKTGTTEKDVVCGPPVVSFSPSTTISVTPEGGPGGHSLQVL

[2] = target: 4-1BB (CD137) extracellular portion (Homo sapiens) (UniProt Q07011); test: filter; settings: 2'-F pyrimidines; alternating mouse/human selection pool
Sequence of 4-1BB (CD137) extracellular portion (Homo sapiens) (Q07011 24-186): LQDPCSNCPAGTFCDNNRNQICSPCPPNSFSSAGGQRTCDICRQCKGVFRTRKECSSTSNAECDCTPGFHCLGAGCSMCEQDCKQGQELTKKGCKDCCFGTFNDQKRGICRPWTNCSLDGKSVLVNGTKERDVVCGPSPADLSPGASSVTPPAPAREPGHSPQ

Sequence	Kd ([1]; round 12 pool)	Kd ([1]; alternating mouse/human selection pool)	Kd [2]
GGGAGAGAGGAAGAGGGAUGGGNNNNNNNNNNNNNNNNNNNNNNNNNNNNNNNNNNNNNNNNCAUAACCCAGAGGUCGAUAGUACUGGAUCCCCCC [mouse 4-1BB selection round 12 pool]	50 nM		
GGGAGAGAGGAAGAGGGAUGGGNNNNNNNNNNNNNNNNNNNNNNNNNNNNNNNNNNNNNNNNCAUAACCCAGAGGUCGAUAGUACUGGAUCCCCCC [mouse/human 4-1BB alternating selection final pool]		200 nM	23 nM
